Reference: paper PMC10104900 (The Journal of Clinical Investigation, 2023)
Like-named read-outs stand apart in the source and are kept apart here.

B1: S451-1140 (antibody, V domains shown)
VH: EVQLVESGGGLVPPGGSLRLSCAASGFIFSNYAMTWVRQAPGKGLEWVSAISGGGGSTDYADSVKGRFTISRDNSKNTLYLQMNSLRAEDTAVYYCAKDLFGSGWSLFDNWGQGTLVTVS
VL: not shown
B2: S626-161 (antibody, V domains shown)
VH: QLQLQESGPGLVKPSEALSLTCTVSGGSISTSNYYWGWIRQPPGKGLEWIGSIYYRGGTHYNPSLKTRVTISVDTSKNQFSLKLSSVTAADTAVYYCARHTYFYDIVGAAVWEPFDIWGQGTMVTVSS
VL: not shown
B3: S728-1157 IgG (antibody, V domains shown)
VH: EVQLVESGGGLVQPGGSLRLSCAASGLLVSRNYMNWVRQAPGKGLEWVSIIYSGGSTFYADSVEGRFTISRDESKNTLYLQMNSLRTDDTAVYYCARDLSDYGGIDCWGQGTLVTVSS
VL: YELTQPLSVSMALGQTARISCGGDNVGSQNVHWYQQRPGQAPVLVIYRDSNRPSGIPERFSGSKSGNTATLTISRAQAGDEADYYCQVWDSSTVAFGGGTKLTVL
notes: copies: 2 + 2
B4: LY-CoV555 (Eli Lilly) (antibody, V domains shown)
VH: QVQLVQSGAEVKKPGSSVKVSCKASGGTFSNYAISWVRQAPGQGLEWMGRIIPILGIANYAQKFQGRVTITADKSTSTAYMELSSLRSEDTAVYYCARGYYEARHYYYYYAMDVWGQGTAVTVSS
VL: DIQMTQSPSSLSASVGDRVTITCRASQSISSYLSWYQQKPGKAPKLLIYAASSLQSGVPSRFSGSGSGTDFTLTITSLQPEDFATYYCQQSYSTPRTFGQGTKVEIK
B5: REGN10933 (Regeneron) (antibody, V domains shown)
VH: QVQLVESGGGLVKPGGSLRLSCAASGFTFSDYYMSWIRQAPGKGLEWVSYITYSGSTIYYADSVKGRFTISRDNAKSSLYLQMNSLRAEDTAVYYCARDRGTTMVPFDYWGQGTLVTVSS
VL: DIQMTQSPSSLSASVGDRVTITCQASQDITNYLNWYQQKPGKAPKLLIYAASNLETGVPSRFSGSGSGTDFTFTISGLQPEDIATYYCQQYDNLPLTFGGGTKVEIK
notes: source: HEK293T, transiently cotransfected, purified (protein A-agarose beads); copies: 2 + 2

Experiments:
[1] = biological target: recombinant FL spike WT-6P (SARS-CoV-2 WT (Wuhan-Hu-1), UniProt P0DTC2, stabilised, biotin (EZ-Link Sulfo-NHS-Biotin) in the BLI experiments)
[2] = biological target: recombinant FL spike WT-2P (SARS-CoV-2 WT (Wuhan-Hu-1), stabilised, biotin (EZ-Link Sulfo-NHS-Biotin) in the BLI experiments)
SARS-CoV-2 WT RBD [3] = biological target: T1, SARS-CoV-2 WT RBD (SARS-CoV-2 WT (Wuhan-Hu-1), UniProt P0DTC2)
spike BA.1-6P = spike BA.1-6P (SARS-CoV-2, Omicron BA.1, strain)
SARS-CoV-2 WT RBD [4] = biological target: T1, SARS-CoV-2 WT RBD; test: ELISA; settings: both partners purified

Row | Binder | binding result [1] | binding result [2] | binding result (SARS-CoV-2 WT RBD [3]) | binding result (spike BA.1-6P) | binding result (SARS-CoV-2 WT RBD [4])
1 | B1 | binds | binds | binds | binds | 
2 | B2 | binds | binds | binds | binds | 
3 | B3 |  |  |  |  | binds
4 | B4 |  |  |  |  | binds
5 | B5 |  |  |  |  | binds
